# US20050119186A1, “Potent peptide inhibitors and methods of use” (priority 2003, published 2005)
# Where two headings read alike, the source gives them in different places. Positions of bridges follow the written chain, without caps; N, C: chain ends. Residues, ends and D or L forms follow the SMILES beside them. No end group written: not given here.
# How the values were obtained:
# ICAM-1/LFA-1 = biological target: T1, ICAM-1/LFA-1 (Homo sapiens, UniProt P05362); assay: cellular aggregation blocking assay (LFA-1/ICAM-1 dependent cell aggregation); assay type: cell-based
# T1 construct: endogenous in cells
# Excerpt: The inhibitory compound tested was a cyclic peptide containing nine amino acids that bind to ICAM-1, thereby inhibiting LFA-1/ICAM-1 binding. Using alanine replacement and homologous amino acid substitutions, we identified residues strategic to the antagonist activity were identified. A small set of such derived peptides was used as a training set for the inverse-QSAR. The activity or potency of the peptides is associated with an IC50 value, which measures the concentration that leads to half-maximal inhibition of receptor to ligand. Table 1, below, lists the amino acid sequence of sixteen such derived peptides with their IC50 values (given in μM), determined using a cellular aggregation blocking assay (J. Shannon, D. C. Brown, M. Silva, R. S. Larson, A cyclic peptide inhibits LFA-1/ICAM-1 mediated cell aggregation, J. Pept. Res. (2001) 1-14, L. Sillerud, E. Burks, D. C. Brown, R. S. Larson, NMR-derived solution model of potent ICAM-1 inhibitory peptide, J. Pept. 62 (2003) 97-116).
# In brief, the aggregation of a cell line dependent on LFA-1 binding to ICAM-1 was used to measure the inhibitory capacity of each peptide. Inhibitory peptides and cells were seeded in flat-bottomed microtiter plates and allowed to aggregate. The number of aggregates and total number of free (single) cells were counted using inverted phase microscopy. The percent aggregation, P, was determined as P=100(1−F/I) (1) where F is the final number of free cells and I is the initial number of free cells. This percent aggregation was then used to calculate the percent inhibition, Pi as follows Pi=100(1−Pip/Pc) (2) where Pip is the percent aggregation with inhibitory peptide and Pc is the percent aggregation in the control experiment. The IC50 values were calculated from a line fit to the percent inhibition data as a function of inhibitory peptide concentration over the range from 10 μM to 1 mM. Each condition was performed in duplicate while each experiment was performed a minimum of three times.
# [1] = biological target: T2, intercellular adhesion molecule-1 (ICAM-1) (human, UniProt P05362 28-532); assay: cell-based or functional assay
# [2] = biological target: T2, intercellular adhesion molecule-1 …; assay: cell-based or functional assay; remark: listed apart in the source
# [3] = Table 1, class by experimental IC50, read-out: Inhibitor strength
# T1 sequence (P05362 28-532): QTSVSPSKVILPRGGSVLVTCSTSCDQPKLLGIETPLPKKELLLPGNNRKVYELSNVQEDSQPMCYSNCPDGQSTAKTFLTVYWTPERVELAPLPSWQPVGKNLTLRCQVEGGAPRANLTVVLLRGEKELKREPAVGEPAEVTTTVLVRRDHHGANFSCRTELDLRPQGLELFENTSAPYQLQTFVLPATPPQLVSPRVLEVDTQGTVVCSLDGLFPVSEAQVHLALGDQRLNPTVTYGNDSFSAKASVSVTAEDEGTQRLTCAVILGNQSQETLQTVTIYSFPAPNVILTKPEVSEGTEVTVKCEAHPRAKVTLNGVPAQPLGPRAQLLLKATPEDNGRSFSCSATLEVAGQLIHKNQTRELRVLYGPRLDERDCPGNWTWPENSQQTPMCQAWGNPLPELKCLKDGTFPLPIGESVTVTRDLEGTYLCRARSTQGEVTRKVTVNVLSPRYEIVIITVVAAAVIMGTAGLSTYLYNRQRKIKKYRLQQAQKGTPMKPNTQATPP
# T2 sequence (P05362 28-532): as above
Molecule,"Experimental IC50 (µM), cellular aggregation blocking assay [1]",also measured
CC[C@H](C)[C@@H]1NC(=O)[C@H](CC(C)C)NC(=O)[C@@H](N)CSSC[C@@H](C(=O)O)NC(=O)[C@H](C)NC(=O)[C@H](CO)NC(=O)[C@H](CCCNC(=N)N)NC(=O)[C@H](CCSC)NC(=O)[C@H](CCCNC(=N)N)NC1=O [Peptide 4] (H-CLIRMRSAC-OH; disulfide 1-9),–,"IC50 (ICAM-1/LFA-1; [3]): 500 to 1000 µM; IC50 (ICAM-1/LFA-1; Table 1, peptide 10 μM to 1 mM, inhibition of cell aggregation, read-out: Experimental IC50): 720 µM"
CC[C@H](C)[C@@H]1NC(=O)[C@@H](N)CSSC[C@@H](C(=O)O)NC(=O)[C@H](C)NC(=O)[C@H](CO)NC(=O)[C@H](CCCCN)NC(=O)[C@H](CCSC)NC(=O)[C@H](CCCCN)NC(=O)[C@H](CC(C)C)NC1=O [Peptide 16] (H-CILKMKSAC-OH; disulfide 1-9),–,"IC50 (ICAM-1/LFA-1; [3]): ≤ 500 µM; IC50 (ICAM-1/LFA-1; strongest inhibitor in the training set, read-out: IC50 value): 40 µM"
"CLLRMRSLC (disulfide 1-9) [Table 1 peptide 8, CLLRMRSLC (SEQ ID NO:28)]",> 1000 µM,–
"CASKMRSAC (disulfide 1-9) [Table 7 peptide 2, CASKMRSAC (SEQ ID NO:2)]",–,"Actual IC50 value (µm), cellular assays [2]: 23 µM"
"CLIRMRSAC (disulfide 1-9) [Table 1 peptide 4, CLIRMRSAC (SEQ ID NO:24)]",720 µM,–
"CVLRMRSAC (disulfide 1-9) [Table 1 peptide 3, CVLRMRSAC (SEQ ID NO:23)]",> 1000 µM,–
"CILKMRSVC (disulfide 1-9) [Table 7 peptide 10, CILKMRSVC (SEQ ID NO:10)]",–,"Actual IC50 value (µm), cellular assays [2]: 28 µM"
"CLLRMRSVC (disulfide 1-9) [Table 1 peptide 9, CLLRMRSVC (SEQ ID NO:29)]",700 µM,–
"CLLKMRSAC (disulfide 1-9) [Table 1 peptide 6, CLLKMRSAC (SEQ ID NO:26)]",105 µM,–
"CLVRMRSAC (disulfide 1-9) [Table 1 peptide 5, CLVRMRSAC (SEQ ID NO:25)]",> 1000 µM,–
"CLLRMKSAC (disulfide 1-9) [Table 1 peptide 7, CLLRMKSAC (SEQ ID NO:27)]",90 µM,–
"CLLRMRSAC (disulfide 1-9) [Table 1 peptide 1, CLLRMRSAC (SEQ ID NO:21)]",480 µM,–

# Second part, led by results:
"Experimental IC50 (µM), cellular aggregation blocking assay [1]",Molecule,also measured
40 µM,"CILKMKSAC (disulfide 1-9) [Table 1 peptide 16, CILKMKSAC (SEQ ID NO:36)]",–
> 1000 µM,"CLLRMASIC (disulfide 1-9) [Table 1 peptide 14, CLLRMASIC (SEQ ID NO:34)]",–
> 1000 µM,"CALRMRSIC (disulfide 1-9) [Table 1 peptide 11, CALRMRSIC (SEQ ID NO:31)]",–
580 µM,"CLLRMRSIC (disulfide 1-9) [Table 1 peptide 10, CLLRMRSIC (SEQ ID NO:30)]",–
> 1000 µM,"CLARMRSIC (disulfide 1-9) [Table 1 peptide 12, CLARMRSIC (SEQ ID NO:32)]",–
710 µM,"CLLRMRAIC (disulfide 1-9) [Table 1 peptide 15, CLLRMRAIC (SEQ ID NO:35)]",–
